# Measured values: the DeepSol protein solubility set
# Test: soluble on expression in E. coli; label from the status in PepcDB or PDB records
row,Sequence,soluble on expression in E. coli
1,MSLSRNSDLHMHSTASDGGYSPTELMEKCHQANLKFVALTDHDTVNGIEEAKQTAHRLGFILIPGIELSTKASGQSVHMLGYGIDWKNDTLKRRLDRQQDIRKQRLEQILLKLKAAGVPLEQDAVLRYADGGAIGRPHVAKALMDKGYVRSVQEAFEHYLAEGRPCYVKRQEYISVEQAIAWIHQAGGVAIVAHPGYYDLDDQLIGWVREYGLDGIEVYHRDHSREVVAHYEQLCKRMEAETGRRLLRTGGSDFHHESYGRTAAPLGTTRIPDQLTYELLHDLERKKTRAEGHHHHHH,soluble
2,MSLSSITNVAATAGVSIATVSRVLSGKRGKDDDIARRVREAAKQLGYSVNYAASALRSDVTKTIGLVIPSATEPFSAQLLDEIEPTIDTESQQLLLGIGATQEAQAERIESLVNRHVDGLIVVPAAGADLAGTLNQYANTLPIVQICGRQTAPRVSVVGIDENAAMEAIVKHLAEQGIASAAYMAGDELSFESAELFATFHTHMRTYGLVTSENWNQFGERTVQRGFDCAMRLFNGPLVQPEAVVCADDAIAFGVMVAFDALGIRVPEDVLVVGYHDSAIARTTMPRLTSVRAPFERIVSECLRLLASGPAGGAAETAAAPGGSVRAPRVMLAPQLIVRDSSVFREGHHHHHH,soluble
3,MSLSVSFIFLLVASIGAVVADSENVLVLTESNFEETINGNEFVLVKFYAPWCVHCKSLAPKYDEAADLLKEEGSDIKLAKVDATENQALASKFEVRGYPTILYFKSGKPTKYTGGRATAQIVDWVKKKSGPTVTTVESVEQLEELKGKTRVVVLGYFKDAKSDAATIYNEVADSVDDAFFAVAGSAEVAAAASLNEDGVALIRTDGDDSETSTIAEAEITNTIALKQWLHAYKLSAVTEFTHESAQEIVGGDLKKFHFLIIRKSDSSFDETIAKFTEVAKKFRAKIVFVLLDVDVEENARILEFLGVDAKNTPANRIVSLADQVEKFKPQEGEDFEAFTNSYLEGKSAQDLKAQDLPEDWNALPVKVLVASNFNEIALDETKTVFVKFYAPWCGHCKQLVPVWDELAEKYESNPNVVIAKLDATLNELADVKVNSFPTLKLWPAGSSTPVDYDGDRNLEKFEEFVNKYAGSASESETASQDHEEL,not soluble
4,MSLTAYLHIGTTNTGNQEKQGFLMQNEEKLLQKAYIYPKSLRVANRHWALVDMVLELVQKEDILKKESVLSHITNERLLRAIENFKSESALHKDKKFIFSAEGIVWDFSTKKHVEILEKIMRELGFTQIYIIVYFRDTLGYLNSHCSQDHKNNMGYYSADFAPQDHPRKYIFDYEWICKTHAEVFGEENLIVRLLREDYVGGTLLKDFVYHLGLEWDESFVLKQTKNESFNLLGMELMSRLNQKDLKQDNLNSLLFMARRKFEGSKEKRLKFAVQKDIAKAYVDYFASSLEWVKNKYFPHKNSLFTPVNWEEYEQNYTLTHMLSKDWDDVADFIAQIIVSKNEIISSLKEQLELAREGHHHHHH,soluble
5,MSLTDDEISSTETAPDIATQPPLFVLGVGAARLDAGRLAELLDAVAGAANLAIMLLLRDRQLLDEAHLRALLGKQATLLSVPFDGEKLQPGRFYLPPADTVVTLEEGRIRLRALPNGESDHGLIDSFFVSMAHDQDGNVIGLIMGRFDGDGTLGTAAIKECGGLALAVDDASLHGLDLRSASNPAAITDHILPLPQLTARIAAHMQRHHGFGHPGPLGVRNGSESDKLSQIAAILRNTTGHDFHGYKRATFLRRVQQRMQVAQVEMLEQYLHILRYRFDEPLQLFNDLLIGVTKFFRDRRGFELLEQQVIPRLFKGKHTDDSMRVWVLGCSTGEEAYSLAMLLREHAETLDSAPRIQIFASDIDGRALATARVGRYASSIVGEVALERLRRWFVKEGDTYVVNKELRELCVFSQHSIVKDPPFSRLDLVSCRNLLIYLDAELQNRVIPIFHFAIRPGGYLFLGNAENVSLQAQLFTPVDRSVRVFQREGHHHHHH,not soluble
6,MSLTDEPKLLAEPREGVPNVIDTLPAFRDYCSELASSHGSLAADAERASGFRYGHEDWLVQFKRDGAGIGLLDPQALAAAGADWNDFNRAVGDAVWILHDSLQDLPGFDELGMEPQRLFDTEIAARLLGLKRFGLAAVTEHFLGLTLAKEHSAADWSYRPLPRDWRNYAALDVELLIELETKMRAELKRQGKMEWAQEEFDYALKEGLGPRKEHLIPWMHVSHITEVMRDRQALAIVRALWTRRDELAREYDIAPTLLLSDSSIIEVAKRKPHNAAQFRSIRSINERVRIHTDSEQDKMFERYAPIQRKIKPSMWKNIIQDALALPPSEWPDVDGGAARRHESQSASAPKSIRVWKERYPERLQVLNRVRKAVSQIAEDTRTPVEIVIKPQYLRNLCWTDEPRKRDVARFLSEQGARDWQVSLVAESVSRAIEGHHHHHH,soluble
7,MSLTDLSRPTLPGALPDKRQVAASFSRAAASYDSVAALQRAVGLSLLEQLPAGLQPSHWLDLGSGTGHFSRMLAERFAQAGGVAVDIAEGMLLHARHVKGGAQYHVVGDAERLPLRDASVDLVFSSLAVQWCDQFASVLAEAQRVLRPGGVLAFSSLCVGTLDELRASWQAVDGLVHVNRFRRFEDYQRLCAASGFEQLELERCPHVLHYPDVRSLTHELKALGAHNLNPGRPSGLTGRARMQGLLQAYEAFRQPAGLPATYQVVYGVLRKPLAEGHHHHHH,not soluble
8,MSLTDPLRFVLVPKVVHPWFDKVNDGAKAAAEMLTTTTGRKVTVEYRAPQKADVVEQNDIIARSIATRPDGIFVDLLDEKGNRAVLEEAQEQGIPVTVFDSVAPEGMNLTSIGNDFCEQATIASTRLVELMGGKGEVAIMMGVPTAPNHAIRAKCHEQTFAKYPDIKLVATGIDNDSIETAQKQAAAIMQAHPNLKGWVASDAAGPIGIGQAIKEAGKVGKVFEVGLDDLPDLLALIKEGVVDSSSSTKPEMQGYWAVIATWQKAMGMPTPKYIDTGIAVITKESLAKEGHHHHHH,soluble
9,MSLTEAGDSEGEQSYFVSTPDEYPGGHDREDDGSVYGQIHIEEESTIRYSWQDEIAQGTWRRKMRGDVGGEKPVKVLEVPALSLGGAIGSAHLKEEASGELRAEPTVIEKEIKIPHEFHTSIKGVFSSEPRHQLVEVIGQLEETLPERMKEELSALTRQSQGESGSVSVDVKKVQSAAGGSVTLMAEVNLSQTVDADQLDLEQLSRDEAGEIERAVESVVRESLAKRSSPVPRSEGHHHHHH,soluble
10,MSLTELPRIISVDDHVIEPAHLFETWLPKKYRDRGPKPLTAGIGELAYVGGKYQITMDPKGPPTDWWIYEDLKFPYKRNIAAVGFDRDEMTLEGITRAEMRRGCWDPVERLKDMDANHVEGSLCFPTFPRFCGQTFAEAHDKEVALACVRAYNDWMVEEWCGDSGGRLIPLCLIPLWDIGLAVAEIRRNAARGVKAVTFSEIPTHLGLPSIHSGYWDPFFAVCQETGTVVNMHIGSSSQMPAASPDAPPAVQAALSFNNAMASMMDFLFSGVLVKFPRLKLAYSEGQMGWIPYALERADDVWEEHRAWGGVRDLIPEPPSTYYYRQIFCCFFRDKHGVASIDVVGRDNATFETDYPHVDSTFPHTKEVALDHVEGLDDETVYKLMRGNAIRMLDLDLDRDLDHLGNRDHLGARDTLSSRDKADREGHHHHHH,soluble
11,MSLTERFVLRNVKRVNGEEVDIVIENNKIAQVTKAGAGEGGKVLDYSGTYVSSGWIDLHVHAFPEFDPYGDEVDEIGVKQGVTTIVDAGSCGADRIADLVKSREQAKTNLFAFLNISRIGLKRIDELSNMEWIDKEKVIEAVEKYKDVIVGLKARMSKSVVCDSGIEPLHIARDLSRETSLPIMVHIGSAPPRIEEVVPLLEKDDVITHYLNGKENNLFDEEGKPLPVLLDAVNRGVHLDVGHGNASFSFKVAEAAKRHGIAFNTISTDIYRKNRMHGPVYSMAHVLSKFLYLGYSLEEVIDAVTKHAAEWLKKPELGRIQEGDIANLTLFTVKDEKITLIDSEGDQRIAERRIDTKGVVINGSFIECEGHHHHHH,soluble
12,MSLTERPRDCRPVVRRARTSDVPAIKQLVDTYAGKILLEKNLVTLYEAVQEFWVAEHPDLYGKVVGCGALHVLWSDLGEIRTVAVDPAMTGHGIGHAIVDRLLQVARDLQLQRVFVLTFETEFFARHGFTEIEGTPVTAEVFDEMCRSYDIGVAEFLDLSYVKPNILGNSRMLLVLEGHHHHHH,soluble
13,MSLTESESGGDTMMAAVLDVLPHGRPGDDRPQHQKEPLAYALDIDEFYIYELQLADKDADIAFGDRIDLTEFGRVTEVEFEDIPSGARSELDYAVEEVVEANEQRFVDFYNDAQPITLRLHQLNLLPGIGKKLRNTILDERKRKPFESFEDLEKRVSGLHSPKETLVERILEELQDDDLKYRLFVRREEQSSEGHHHHHH,soluble
14,MSLTFCYPCRAFALLTRGFTSFMSGWPRIYYKLLNLPLSILVKSKSIPADPAPELGLDTSRPIMYVLPYNSKADLLTLRAQCLAHDLPDPLEPLEIDGTLLPRYVFIHGGPRVFTYYTPKEESIKLFHDYLDLHRSNPNLDVQMVPVSVMFGRAPGREKGEVNPPLRMLNGVQKFFAVLWLGRDSFVRFSPSVSLRRMADEHGTDKTIAQKLARVARMHFARQRLAAVGPRLPARQDLFNKLLASRAIAKAVEDEARSKKISHEKAQQNAIALMEEIAANFSYEMIRLTDRILGFTWNRLYQGINVHNAERVRQLAHDGHELVYVPCHRSHMDYLLLSYVLYHQGLVPPHIAAGINLNFWPAGPIFRRLGAFFIRRTFKGNKLYSTVFREYLGELFSRGYSVEYFVEGGRSRTGRLLDPKTGTLSMTIQAMLRGGTRPITLIPIYIGYEHVMEVGTYAKELRGATKEKESLPQMLRGLSKLRNLGQGYVNFGEPMPLMTYLNQHVPDWRESIDPIEAVRPAWLTPTVNNIAADLMVRINNAGAANAMNLCCTALLASRQRSLTREQLTEQLNCYLDLMRNVPYSTDSTVPSASASELIDHALQMNKFEVEKDTIGDIIILPREQAVLMTYYRNNIAHMLVLPSLMAAIVTQHRHISRDVLMEHVNVLYPMLKAELFLRWDRDELPDVIDALANEMQRQGLITLQDDELHINPVHSRTLQLLAAGARETLQRYAITFWLLSANPSINRGTLEKESRTVAQRLSVLHGINAPEFFDKAVFSSLVLTLRDEGYISDSGDAEPAETMKVYQLLAELITSDVRLTIESATQGEEGHHHHHH,soluble
15,MSLTFEEKLSQMYNEIANEISGMIPVEWEKVYTIAYVDDEGGEVVFNYTKPGSEDLNYYSDIPKDCNVSKDIFKNSWFKVYRMFDELRETFKKEDLEPWTSCEFDFTRKGNLKVSFDYIDWIKLGFGPSGKENYYMYKKFGILPDMEYEMEEIRAVEKYVKEEGHHHHHH,soluble
16,MSLTGKPIVLGLTISTTAAAGVADHADHMNGSLLAQEEINANGGILGRPLELRPVDVDLLSAESCQASIRKLVDLKVHAISSPFLFVPIPAMDASANYKCPYVNGNTQRAATDMVAKHPEKYNHIFQMDPSEVFYGETFPVFLESLADSGNWKPKNNKVHIVQEQIAYCQTISRACQEALKKSRFELAKVTDIQYPVQDWGSVIRDIKKTGAGTVMMDHWVAAEYAAFCKQFRANPLKGTLIYLQYGPSQPEFLELTGKAAEGFVWSTMLGVYADKKGQAFRDKYQKRFPGKTMGLCYTGGGYDIAYMMAQAWNAVGNPDDFKAVNDYIRKTAFRGVCGWSYMNNPRQEARHFPLGTDSIESGMSQLYFQIQDGKNKIIYPPQLKEGHHHHHH,soluble
17,MSLTGLCDSHLHTPLCGHATGTPREYAQAALDAGLSGLCFTDHMPMPRWYDAPWRMKLEQLPEYIAEIQAVQQEFAGRLDVRLGLEADFHPGTEKFVEKVLGMFDWDYVIGSVHYLGAWGFDNPEFVAEYEERDLGGLYRDYYALVEGAARSGLFDAIGHLDLPKKFGHLDPDPVYALHALDVVAGQGLALDFNTAGWRKPVAEAYPAPDLVRAAAERGIPFVLGSDAHQPGEVGFRFADAVKEIRDVGGRTVTFRHRKMQEGHHHHHH,soluble
